B1: convulxin (Cvx), purified from the venom of Crotalus durissus terrificus (ligand)
chain 1: GLHCPSDWYYYDQHCYRIFNEEMNWEDAEWFCTKQAKGAHLVSIKSAKEADFVAWMVTQNIEESFSHVSIGLRVQNKEKQCSTKWSDGSSVSYDNLLDLYITKCSLLKKETGFRKWFVASCIGKIPFVCKFPPQC
chain 2: GFCCPSHWSSYDRYCYKVFKQEMTWADAEKFCTQQHTGSHLVSFHSTEEVDFVVKMTHQSLKSTFFWIGANNIWNKCNWQWSDGTKPEYKEWHEEFECLISRTFDNQWLSAPCSDTYSFVCKFEA

What was measured:
[1] = molecular target: collagen type I; experiment: cell-based or functional assay
[2] = molecular target: baboon platelet GPVI (baboon); experiment: flow cytometry, washed baboon platelets (positive control)

Row | Molecule | concentration of rhusGPVI:Fc needed to inhibit collagen-induced versus Cvx-induced platelet activation [1] | Baboon fluorescence intensity [2] | Baboon platelets % positive [2]
1 | recombinant human soluble GPVI:Fc (rhusGPVI:Fc) (from UniProt Q9HCN6 21-269) (Fc fusion) | 10 fold | – | –
2 | B1 | – | 72 | 95%
